Results taken from article PMC11358308 (2024).

T1: human B-cell maturation antigen (BCMA), extracellular domain (human, UniProt Q02223 1-54)
T1 chain: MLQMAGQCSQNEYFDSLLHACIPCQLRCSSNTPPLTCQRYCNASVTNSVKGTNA


Legend:
cynomolgus BCMA = cynomolgus BCMA (cynomolgus monkey); assay: SPR
[1] = molecular target: T1, human B-cell maturation antigen (BCMA), …; assay: SPR

Sequence of cynomolgus BCMA (cynomolgus monkey) (chain, as listed by the source): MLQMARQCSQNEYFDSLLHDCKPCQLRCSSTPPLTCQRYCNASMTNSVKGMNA

Kd (cynomolgus BCMA) [nM] | Kd [1] [nM] | Binder
2.7 | – | J22.9-xi, chimaeric mouse/human IgG (antibody, V domains shown) VH: QVQLQQSGGGLVQPGGSLKLSCAASGIDFSRYWMSWVRRAPGKGLEWIGEINPDSSTINYAPSLKDKFIISRDNAKNTLYLQMSKVRSEDTALYYCASLYYDYGDAMDYWGQGTSVTVSS VL: DIVMTQSQRFMTTSVGDRVSVTCKASQSVDSNVAWYQQKPRQSPKALIFSASLRFSGVPARFTGSGSGTDFTLTISNLQSEDLAEYFCQQYNNYPLTFGAGTKLELK
20 | 2.2 | J22.9-FSY, humanized and CDR-optimized IgG (antibody, V domains shown) VH: EVQLVESGGGLVQPGGSLRLSCAASGFTFSRYWFSWVRQAPGKGLVWVGEINPSSSTINYAPSLKDKFTISRDNAKNTLYLQMNSLRAEDTAVYYCASLYYDYGDAYDYWGQGTLVTVSS VL: EIVMTQSPATLSVSPGERATLSCKASQSVESNVAWYQQKPGQAPRALIYSASLRFSGIPARFSGSGSGTEFTLTISSLQSEDFAVYYCQQYNNYPLTFGAGTKLELK
200 | – | J22.9-H, humanized IgG (all humanizing substitutions in VH and VL except A46L in VL) (antibody, V domains shown) VH: EVQLVESGGGLVQPGGSLRLSCAASGFTFSRYWMSWVRQAPGKGLVWVGEINPDSSTINYAPSLKDKFTISRDNAKNTLYLQMNSLRAEDTAVYYCASLYYDYGDAMDYWGQGTLVTVSS VL: EIVMTQSPATLSVSPGERATLSCKASQSVDSNVAWYQQKPGQAPRALIYSASLRFSGIPARFSGSGSGTEFTLTISSLQSEDFAVYYCQQYNNYPLTFGAGTKLELK
17 | 2 | J22.9-ISY, humanized and CDR-optimized IgG (antibody, V domains shown) VH: EVQLVESGGGLVQPGGSLRLSCAASGFTFSRYWISWVRQAPGKGLVWVGEINPSSSTINYAPSLKDKFTISRDNAKNTLYLQMNSLRAEDTAVYYCASLYYDYGDAYDYWGQGTLVTVSS VL: EIVMTQSPATLSVSPGERATLSCKASQSVESNVAWYQQKPGQAPRALIYSASLRFSGIPARFSGSGSGTEFTLTISSLQSEDFAVYYCQQYNNYPLTFGAGTKLELK
